For this assay, the target named is T1, Natural Ara h 6 (InBio) (peanut, UniProt Q647G9 22-145).
T1 sequence (looked up): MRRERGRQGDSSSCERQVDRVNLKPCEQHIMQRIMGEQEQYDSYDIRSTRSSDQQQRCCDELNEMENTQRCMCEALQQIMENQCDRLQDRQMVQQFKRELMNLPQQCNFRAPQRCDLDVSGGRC
Briefly: told in the description of Combination-1; assay not named.

B1: Molecule-1a (bispecific antibody, human IgG4 S228P, kappa)
heavy: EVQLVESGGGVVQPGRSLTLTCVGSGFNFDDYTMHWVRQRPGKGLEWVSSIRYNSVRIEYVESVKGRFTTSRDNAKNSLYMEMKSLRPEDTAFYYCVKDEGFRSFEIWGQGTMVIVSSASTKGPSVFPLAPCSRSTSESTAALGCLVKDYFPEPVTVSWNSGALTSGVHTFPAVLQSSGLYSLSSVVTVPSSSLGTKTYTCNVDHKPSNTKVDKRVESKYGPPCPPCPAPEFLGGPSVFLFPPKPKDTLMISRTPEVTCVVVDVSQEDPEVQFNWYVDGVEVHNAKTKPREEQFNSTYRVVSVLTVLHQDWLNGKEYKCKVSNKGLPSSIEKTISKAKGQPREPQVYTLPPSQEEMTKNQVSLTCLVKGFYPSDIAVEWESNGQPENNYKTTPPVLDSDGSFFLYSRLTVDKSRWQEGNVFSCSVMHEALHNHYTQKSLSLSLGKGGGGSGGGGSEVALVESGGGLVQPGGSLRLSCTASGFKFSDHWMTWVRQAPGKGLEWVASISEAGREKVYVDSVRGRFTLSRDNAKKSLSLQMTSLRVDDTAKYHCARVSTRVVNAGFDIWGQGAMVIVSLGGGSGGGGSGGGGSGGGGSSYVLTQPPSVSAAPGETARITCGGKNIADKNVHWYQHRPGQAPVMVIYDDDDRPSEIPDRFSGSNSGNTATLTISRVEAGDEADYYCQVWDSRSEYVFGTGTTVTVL
light: DIVMTQSPLSLPVTPGEPASISCRSTQSLEHSNGYHYLDWYVQKAGQSPQLLISLGSKRASGVPDRFSGSVSGTDFTLKISRVEAEDVGVYYCMQALQTWTFGQGTKVEIKRTVAAPSVFIFPPSDEQLKSGTASVVCLLNNFYPREAKVQWKVDNALQSGNSQESVTEQDSKDSTYSLSSTLTLSKADYEKHKVYACEVTHQGLSSPVTKSFNRGEC
notes: CMC liabilities removed; also called Molecule-1 (of Combination-1)
Take B1: the binding result is “binds”.

(Values after US20250263472A1 (IGGENIX, published 2025).)
